Measurements as given in paper PMC5499601 (Nucleic Acids Research, 2017).
Changes are numbered by the printed parent chain.

How the values were obtained:
Assay in all cases: EMSA
[1] = target: T1, BsSpo0J H57E (UniProt P26497 1-282, H57E)
T1 sequence: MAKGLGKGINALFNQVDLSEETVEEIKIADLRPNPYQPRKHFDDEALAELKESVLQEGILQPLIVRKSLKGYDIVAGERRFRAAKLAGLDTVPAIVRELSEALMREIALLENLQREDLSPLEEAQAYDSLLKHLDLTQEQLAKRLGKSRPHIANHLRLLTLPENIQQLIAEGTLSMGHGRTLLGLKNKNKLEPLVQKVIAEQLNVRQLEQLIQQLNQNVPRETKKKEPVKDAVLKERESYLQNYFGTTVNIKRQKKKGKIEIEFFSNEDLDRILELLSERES

[2] = target: T2, BsSpo0J Q61A (UniProt P26497 1-282, Q61A)
T2 sequence: T1 sequence with E57H, Q61A

[3] = target: T3, BsSpo0J E52R (UniProt P26497 1-282, E52R)
T3 sequence: T1 sequence with E52R, E57H

[4] = target: T4, BsSpo0J Q140A (UniProt P26497 1-282, Q140A)
T4 sequence: T1 sequence with E57H, Q140A

[5] = target: T5, BsSpo0J Q61R (UniProt P26497 1-282, Q61R)
T5 sequence: T1 sequence with E57H, Q61R

[6] = target: T6, BsSpo0J R80A (UniProt P26497 1-282, R80A)
T6 sequence: T1 sequence with E57H, R80A

[7] = target: T7, BsSpo0J WT (UniProt P26497 1-282)
T7 sequence: T1 sequence with E57H

[8] = target: T8, BsSpo0J R82A (UniProt P26497 1-282, R82A)
T8 sequence: T1 sequence with E57H, R82A

[9] = target: T9, BsSpo0J R105E (UniProt P26497 1-282, R105E)
T9 sequence: T1 sequence with E57H, R105E

Measured: binding result

B1: 39-bp parS (dsDNA)
DNA 1: CAGTTGAATCAGAATGTTCCACGTGAAACAAAGAAAAAA
DNA 2: TTTTTTCTTTGTTTCACGTGGAACATTCTGATTCAACTG
binds: all assays above
